These results are taken from US20040171537A1 (HOSPITAL FOR SICK CHILDREN, published 2004).

The target in experiment [1] is T1, c-Cbl (endogenous, Jurkat T-cell lysate) (human, UniProt P22681 1-906, tyrosine phosphorylated after anti-CD3 stimulation (sites not given)).
T1 construct: also called 120 kDa phosphoprotein
Briefly: GST pull-down from unstimulated or anti-CD3 stimulated Jurkat lysates, anti-c-Cbl immunoblot. As for the experimental part: Full-length MARS and MARS-v coding regions were fused in-frame to glutathione-S-transferase, in PGEX4T1. Recombinant GST fusion proteins were expressed in bacteria and purified on glutathione sepharose (GS) (Pharmacia). Jurkat T-cells (20×10⁶) were either left unstimulated (−) or stimulated with anti-CD3 (+); (anti-human CD3ε, clone UCGT1, Pharmingen) for 2 minutes. Cells were lysed in 1% NP-40 lysis buffer containing 1 mM sodium orthovanadate and complete protease inhibitors (Roche). Cell lysates were incubated with 4 μg of GS bound GST fusion proteins for 90 minutes at 4° C. and washed 4 times for 10 minutes with 0.1% NP-40 lysis buffer. Bound proteins were eluted by boiling in 2×SDS sample buffer and were resolved by SDS-PAGE on 10% polyacrylamide gels. Proteins were subsequently transferred to PVDF membrane (NEN) and blotted with anti-phosphotyrosine antibody (clone 4G10, UBI; top panel, FIG. 13). Membranes were stripped and reprobed with anti-c-Cbl antibody (Santa Cruz; middle panel, FIG. 13), and subsequently stained with Coomassie blue dye to check for equal loading of the respective fusions (bottom panel, FIG. 13).
On the technique in general: In western blotting, separated proteins are transferred to a membrane and probed.

Experiment [2] concerns the target T1, c-Cbl (endogenous, Jurkat T-cell lysate). As to the kind of experiment: GST pull-down from Jurkat T-cell lysates, anti-c-Cbl immunoblot.

B1: GST fusion of human MARS-v (MARS short isoform, splice variant) (other, not shown: a dimerising Fc or GST; large carriers; small tags and cut ends)
chain: MGSLPSRRKSLPSPSLSSSVQGQGPVTMEAERSKATAVALGSFPAGGPAELSLRLGEPLTIVSEDGDWWTVLSEVSGREYNIPSVHVAKVSHGWLYEGLSREKAEELLLLPGNPGGAFLIRESQTRRGSYSLSVRLSRPASWDRIRHYRIHCLDNGWLYISPRLTFPSLQALVDHYSEGWPAPWQGYTPTCDCAEDTTQLERAGQLPPVF
modifications: N-terminal GST fusion from pGEX-4T1; GST letters are not given and are left out
notes: The full-length MARS-v coding region (210 amino acids) was fused in-frame to GST; also called MARS-variant; MARS splice variant
For B1, the binding result in experiment [1] is recorded as “no binding (tested: 4 µg of GS bound GST fusion proteins)”.

B2: GST-MARS delta-C (deletion of the carboxy-terminal 70 amino acids) (other, not shown: a dimerising Fc or GST; large carriers; small tags and cut ends)
chain: MGSLSSRGKTSSPSPSSSGPDQEPVSMQPERHKVTAVALGSFPAGEQARLSLRLGEPLTIISEDGDWWTVQSEVSGREYHMPSVYVAKVAHGWLYEGLSREKAEELLLLPGNPGGAFLIRESQTRRGCYSLSVRLSRPASWDRIRHYRIQRLDNGWLYISPRLTFPSLHALVEHYSELADGICCPLREP
modifications: N-terminal GST fusion from pGEX-4T1; GST letters are not given and are left out
notes: Residues 1-189 are worked out from the 259-residue entry; also called MARS AC mutant; C-terminal deletion mutant of MARS
Consider B2, for which, in experiment [2], the binding result is given as “no binding”.
